Publication PMC11880808

Key:
[1] = biological target: cynomolgus monkey IL-2 receptor alpha (IL-2Rα) (cynomolgus monkey); assay: BLI; Octet; who was immobilised, temperature and buffer are not told
[2] = biological target: cynomolgus monkey IL-2 receptor beta and gamma (IL-2Rβγ) complex (cynomolgus monkey) (UniProt Q38J85); assay: as above

recombinant human IL-2 (from UniProt P60568 21-153) (ligand)
Kd [1]: 0.0199 µM | Kd [2]: 0.00129 µM
